Source: patent publication US11421026B2, “Antibodies that bind human cannabinoid 1 (CB1) receptor” (BIRD ROCK BIO, Inc., priority 2015, dated 2022)

B1: PA13R3-P1C4: phage-derived chimeric anti-CB1 IgG; HC variable SEQ ID NO: 2, LC variable SEQ ID NO: 6 (antibody, V domains shown)
VH: EVQLQQSGAELVRPGVSVKISCKASGYEFSYYWMNWVKQRPGQGLEWIGQIYPGDGETKYNGKFKGKATLTADKSSNTAYMQLSSLTSEDSAVYFCARSHGNYLPYWGQGTLVTVSA
VL: DIVLTQSPAIMSASLGERVTMTCTASSSVSSSYLHWYQQKPGSSPKLWIYSTSNLASGVPARFSGSGSGTSYSLTISSMEAEDAATYYCHQYHRSPPTFGAGTKLELK
modifications: PA13R3-P1C4 Heavy chain variable region; PA13R3-P1C4 Light chain variable region
B2: PA13R3-P1C4 Fab: Fab fragment of chimeric PA13R3-P1C4 (antibody, V domains shown)
VH: B1 VH
VL: B1 VL
B3: 36E12B6C2: hybridoma-derived anti-CB1 mAb; HC variable SEQ ID NO: 18, LC variable SEQ ID NO: 22 (antibody, listed as Mus sp., V domains shown)
VH: QVQLQQSGAELVRPGSSVKISCKASGYEFSYYWMNWVKQRPGQGLQWIGQIYPGDGDTNYNGKFKGKATLTADKSSSTAYMHLTSLTSEDSAVYFCARSGGNPFAFWGQGTLVTVSA
VL: DIQMTQTSSSLSASLGDRVTFSCRASQDISNYLNWYQQKPDGTVKLLIYYTSRLHSGVTSRFRGSGSGTDYSLTISNLEQEDVATYFCQQGHTLPWSFGGGTKLEIK

Experiments:
[1] = tested on: TRex CHO parental cells (no CB1); experiment: Flow cytometry (FACS) binding to parental cells
Experimental: (§1) TRex CHO parental cells, TRex CHO A56 over-expressed CB1 (CB1 T210A/fusion partner), and Native human CB1 TRex CHO A156 were harvested from flasks. 100 μl of 1×10^6 cells/ml of cells were incubated with primary antibody IgGs. Secondary Antibody PE conjugated anti-human and anti-mouse was diluted in 1:200 folds. Anti-Human Fab FITC was diluted in 1:32 folds. Cells were washed with 200 μl of FACS buffer twice and transferred to BD 5 ml Falcon tube and analyzed by flow cytometry. Binding of purified IgG was initially tested at concentrations of 30 nM and 300 nM.
(§2) To further assess TRex CHO parental cells, TRex CHO A56 overexpressed CB1, Native human CB1 TRex CHO A156, 5HT2B, Mouse CB1 and human CB2 were used to examine the specificity of IgG binding. 100 μl of 1×10^6 cells/ml of cells were incubated with primary antibody IgGs in 3-fold serial dilutions starting from 1 μM to 0.5 nM for 30 minutes on ice. After being washed with 200 μl of FACS buffer twice, cells were incubated with secondary antibody for 30 minutes on ice. Cells were washed with 200 μl of FACS buffer twice and transferred to BD Falcon 5 ml tube and analyzed by FACS.
(§3) The binding affinity, cross-reactivity and specificity of humanized P1C4 antibodies were determined by flow cytometry with TRex CHO parental cells, TRex CHO A56 overexpressed CB1 cells (T210A/fusion partner), native human CB1 TRex CHO A156 cells, Trex parental (no CB1) cells, mouse CB1 cells, and human CB2 stable cells. […] After being washed with 200 μl of FACS buffer twice, cells were incubated with PE conjugated anti-human secondary antibody (Southern Biotech) for 30 minutes on ice. Cells were washed with 200 μl of FACS buffer twice and transferred to BD Falcon 5 ml tube and analyzed by flow cytometry (BD FACScalibur).
The binding affinity of PA13R3-P1C4 humanized variants was determined by flow cytometry using TRex CHO cells stably transfected with the CB1. TRex CHO parental cells, and TRex-CHO cells stably transfected with tetracycline inducible human CB1, human CB2 or mouse CB1 expression constructs were harvested. To determine binding of test antibodies, one hundred microliters of 1×10^6 cells/mL of cells were incubated with test antibodies with a range of concentrations between 1 μM and 1.3 nM for 30 minutes on ice. Cells were then centrifuged at 4° C. at 1600 rpm for 3 minutes; supernatant was aspirated and cells were washed with 200 μL FACS buffer. The washing procedure was repeated twice. […] Cells were washed with 200 μL FACS buffer twice and analyzed by flow cytometry (Guava). […] The mean dissociation constant (KD) of PA13R3-P1C4 humanized variants was determined by averaging at least 4 different experiments using at least 2 different batches of protein (FIG. 20A-D and Table 16).

[2] = biological target: T1, Mouse CB1 (TRex CHO cells) (Mus musculus, UniProt P47746); experiment: Flow cytometry cross-reactivity to mouse CB1; format: binding
T1 construct: expressed in transfected cells
Experimental: as §2
Santa Cruz anti-CB1 rabbit polyclonal antibody and secondary antibody FITC conjugated anti-rabbit were used to detect the expression of mouse CB1. R&D mouse monoclonal anti-CB2 and human IgG P2C2 were used to confirm the expression of CB2 and 5HT2B respectively. Both anti-mouse and anti-human secondary antibodies were PE-conjugated.
as §3
Binding selectivity and cross-reactivity of PA13R3-P1C4 and its humanized variants was also characterized by flow cytometry using TRex CHO cells stably transfected with the GPCRs of interest. Specifically, binding selectivity for CB1 over CB2 was determined. Cross reactivity to mouse CB1 was also determined. For detecting expression of mouse CB1, 100 μL of 1×10^6 cells/mL of cells were incubated with anti-CB1 rabbit polyclonal antibody (Santa Cruz) at 1 μg/100 μL on ice for 30 min. Mouse monoclonal anti-CB2 antibody from R&D Systems was used to confirm the expression of CB2. 100 μL of 1×10^6 cells/mL of cells were incubated with anti-CB2 antibody at 0.5 μg/100 μL on ice for 30 minutes. After incubation, cells were then centrifuged at 4° C. at 1600 rpm for 3 minutes; supernatant was aspirated and cells were washed with 200 μL FACS buffer. The procedure was repeated twice. […] Cells were washed with 200 μL FACS buffer twice and analyzed by flow cytometry (Guava). Binding of purified IgG full concentration curves ranging from 1 μM to 1.3 nM was determined. […]

[3] = tested on: TRex CHO A56 over-expressed CB1 (CB1 T210A/fusion partner); experiment: Flow cytometry (FACS) binding to over-expressed CB1 cells; parameters: species or system human
Experimental: as §1, §2
(§4) For selected binders, full binding curves were generated on CB1 receptor by testing a range of concentrations. Three-fold serial dilutions from 1 μM to […] were prepared. Selectivity was determined by measuring binding to cells expressing 5HT2B or CB2, relative to binding to A156 (native human CB1 receptor expressing) or A56 (overexpressed—CB1 receptor with the T210A modification and ICL3 replacement with fusion partner) by flow cytometry. […]
(§5) The binding affinity, cross-reactivity and specificity of humanized P1C4 antibodies were determined by flow cytometry with TRex CHO parental cells, TRex CHO A56 overexpressed CB1 cells (T210A/fusion partner), native human CB1 TRex CHO A156 cells, Trex parental (no CB1) cells, mouse CB1 cells, and human CB2 stable cells. […] Cells were washed with 200 μl of FACS buffer twice and transferred to BD Falcon 5 ml tube and analyzed by flow cytometry (BD FACScalibur).

[4] = biological target: T2, Native human CB1 TRex CHO A156 (Homo sapiens, UniProt P21554); experiment: Flow cytometry (FACS) binding to native human CB1 cells
T2 construct: pcDNA4/TO native full length human CB1 receptor construct was transfected into tetracycline inducible system Trex-CHO cells; expressed in transfected cells
Experimental: as §1, §2, §4, §5

Molecule	binding to parental TRex CHO (in words) [1]	Kd TRexCHO parental ([1]; Table 10)	cross-activity with Mouse CB1 [2]	Kd TRexCHO Mouse CB1 ([2]; Table 10)	binding to A56 (in words) [3]	binding to A156 (in words) [4]
B1	not parental TRex CHO	No binding	do not have cross-activity	No binding	bind to both A56 and A156	bind to both A56 and A156
B2	not parental TRex CHO	–	do not have cross-activity	–	bind to both A56 and A156	bind to both A56 and A156
B3	not parental TRex CHO	–	do not have cross-activity	–	bind to both A56 and A156	bind to both A56 and A156
